Test results: publication PMC5121336 (2016)

Biological target: human LDL (low-density lipoprotein) (human)
Assay: SPR; LDL saturated with ALK1ecto

human LDL (low-density lipoprotein) (human), sequence (P04114 28-4563): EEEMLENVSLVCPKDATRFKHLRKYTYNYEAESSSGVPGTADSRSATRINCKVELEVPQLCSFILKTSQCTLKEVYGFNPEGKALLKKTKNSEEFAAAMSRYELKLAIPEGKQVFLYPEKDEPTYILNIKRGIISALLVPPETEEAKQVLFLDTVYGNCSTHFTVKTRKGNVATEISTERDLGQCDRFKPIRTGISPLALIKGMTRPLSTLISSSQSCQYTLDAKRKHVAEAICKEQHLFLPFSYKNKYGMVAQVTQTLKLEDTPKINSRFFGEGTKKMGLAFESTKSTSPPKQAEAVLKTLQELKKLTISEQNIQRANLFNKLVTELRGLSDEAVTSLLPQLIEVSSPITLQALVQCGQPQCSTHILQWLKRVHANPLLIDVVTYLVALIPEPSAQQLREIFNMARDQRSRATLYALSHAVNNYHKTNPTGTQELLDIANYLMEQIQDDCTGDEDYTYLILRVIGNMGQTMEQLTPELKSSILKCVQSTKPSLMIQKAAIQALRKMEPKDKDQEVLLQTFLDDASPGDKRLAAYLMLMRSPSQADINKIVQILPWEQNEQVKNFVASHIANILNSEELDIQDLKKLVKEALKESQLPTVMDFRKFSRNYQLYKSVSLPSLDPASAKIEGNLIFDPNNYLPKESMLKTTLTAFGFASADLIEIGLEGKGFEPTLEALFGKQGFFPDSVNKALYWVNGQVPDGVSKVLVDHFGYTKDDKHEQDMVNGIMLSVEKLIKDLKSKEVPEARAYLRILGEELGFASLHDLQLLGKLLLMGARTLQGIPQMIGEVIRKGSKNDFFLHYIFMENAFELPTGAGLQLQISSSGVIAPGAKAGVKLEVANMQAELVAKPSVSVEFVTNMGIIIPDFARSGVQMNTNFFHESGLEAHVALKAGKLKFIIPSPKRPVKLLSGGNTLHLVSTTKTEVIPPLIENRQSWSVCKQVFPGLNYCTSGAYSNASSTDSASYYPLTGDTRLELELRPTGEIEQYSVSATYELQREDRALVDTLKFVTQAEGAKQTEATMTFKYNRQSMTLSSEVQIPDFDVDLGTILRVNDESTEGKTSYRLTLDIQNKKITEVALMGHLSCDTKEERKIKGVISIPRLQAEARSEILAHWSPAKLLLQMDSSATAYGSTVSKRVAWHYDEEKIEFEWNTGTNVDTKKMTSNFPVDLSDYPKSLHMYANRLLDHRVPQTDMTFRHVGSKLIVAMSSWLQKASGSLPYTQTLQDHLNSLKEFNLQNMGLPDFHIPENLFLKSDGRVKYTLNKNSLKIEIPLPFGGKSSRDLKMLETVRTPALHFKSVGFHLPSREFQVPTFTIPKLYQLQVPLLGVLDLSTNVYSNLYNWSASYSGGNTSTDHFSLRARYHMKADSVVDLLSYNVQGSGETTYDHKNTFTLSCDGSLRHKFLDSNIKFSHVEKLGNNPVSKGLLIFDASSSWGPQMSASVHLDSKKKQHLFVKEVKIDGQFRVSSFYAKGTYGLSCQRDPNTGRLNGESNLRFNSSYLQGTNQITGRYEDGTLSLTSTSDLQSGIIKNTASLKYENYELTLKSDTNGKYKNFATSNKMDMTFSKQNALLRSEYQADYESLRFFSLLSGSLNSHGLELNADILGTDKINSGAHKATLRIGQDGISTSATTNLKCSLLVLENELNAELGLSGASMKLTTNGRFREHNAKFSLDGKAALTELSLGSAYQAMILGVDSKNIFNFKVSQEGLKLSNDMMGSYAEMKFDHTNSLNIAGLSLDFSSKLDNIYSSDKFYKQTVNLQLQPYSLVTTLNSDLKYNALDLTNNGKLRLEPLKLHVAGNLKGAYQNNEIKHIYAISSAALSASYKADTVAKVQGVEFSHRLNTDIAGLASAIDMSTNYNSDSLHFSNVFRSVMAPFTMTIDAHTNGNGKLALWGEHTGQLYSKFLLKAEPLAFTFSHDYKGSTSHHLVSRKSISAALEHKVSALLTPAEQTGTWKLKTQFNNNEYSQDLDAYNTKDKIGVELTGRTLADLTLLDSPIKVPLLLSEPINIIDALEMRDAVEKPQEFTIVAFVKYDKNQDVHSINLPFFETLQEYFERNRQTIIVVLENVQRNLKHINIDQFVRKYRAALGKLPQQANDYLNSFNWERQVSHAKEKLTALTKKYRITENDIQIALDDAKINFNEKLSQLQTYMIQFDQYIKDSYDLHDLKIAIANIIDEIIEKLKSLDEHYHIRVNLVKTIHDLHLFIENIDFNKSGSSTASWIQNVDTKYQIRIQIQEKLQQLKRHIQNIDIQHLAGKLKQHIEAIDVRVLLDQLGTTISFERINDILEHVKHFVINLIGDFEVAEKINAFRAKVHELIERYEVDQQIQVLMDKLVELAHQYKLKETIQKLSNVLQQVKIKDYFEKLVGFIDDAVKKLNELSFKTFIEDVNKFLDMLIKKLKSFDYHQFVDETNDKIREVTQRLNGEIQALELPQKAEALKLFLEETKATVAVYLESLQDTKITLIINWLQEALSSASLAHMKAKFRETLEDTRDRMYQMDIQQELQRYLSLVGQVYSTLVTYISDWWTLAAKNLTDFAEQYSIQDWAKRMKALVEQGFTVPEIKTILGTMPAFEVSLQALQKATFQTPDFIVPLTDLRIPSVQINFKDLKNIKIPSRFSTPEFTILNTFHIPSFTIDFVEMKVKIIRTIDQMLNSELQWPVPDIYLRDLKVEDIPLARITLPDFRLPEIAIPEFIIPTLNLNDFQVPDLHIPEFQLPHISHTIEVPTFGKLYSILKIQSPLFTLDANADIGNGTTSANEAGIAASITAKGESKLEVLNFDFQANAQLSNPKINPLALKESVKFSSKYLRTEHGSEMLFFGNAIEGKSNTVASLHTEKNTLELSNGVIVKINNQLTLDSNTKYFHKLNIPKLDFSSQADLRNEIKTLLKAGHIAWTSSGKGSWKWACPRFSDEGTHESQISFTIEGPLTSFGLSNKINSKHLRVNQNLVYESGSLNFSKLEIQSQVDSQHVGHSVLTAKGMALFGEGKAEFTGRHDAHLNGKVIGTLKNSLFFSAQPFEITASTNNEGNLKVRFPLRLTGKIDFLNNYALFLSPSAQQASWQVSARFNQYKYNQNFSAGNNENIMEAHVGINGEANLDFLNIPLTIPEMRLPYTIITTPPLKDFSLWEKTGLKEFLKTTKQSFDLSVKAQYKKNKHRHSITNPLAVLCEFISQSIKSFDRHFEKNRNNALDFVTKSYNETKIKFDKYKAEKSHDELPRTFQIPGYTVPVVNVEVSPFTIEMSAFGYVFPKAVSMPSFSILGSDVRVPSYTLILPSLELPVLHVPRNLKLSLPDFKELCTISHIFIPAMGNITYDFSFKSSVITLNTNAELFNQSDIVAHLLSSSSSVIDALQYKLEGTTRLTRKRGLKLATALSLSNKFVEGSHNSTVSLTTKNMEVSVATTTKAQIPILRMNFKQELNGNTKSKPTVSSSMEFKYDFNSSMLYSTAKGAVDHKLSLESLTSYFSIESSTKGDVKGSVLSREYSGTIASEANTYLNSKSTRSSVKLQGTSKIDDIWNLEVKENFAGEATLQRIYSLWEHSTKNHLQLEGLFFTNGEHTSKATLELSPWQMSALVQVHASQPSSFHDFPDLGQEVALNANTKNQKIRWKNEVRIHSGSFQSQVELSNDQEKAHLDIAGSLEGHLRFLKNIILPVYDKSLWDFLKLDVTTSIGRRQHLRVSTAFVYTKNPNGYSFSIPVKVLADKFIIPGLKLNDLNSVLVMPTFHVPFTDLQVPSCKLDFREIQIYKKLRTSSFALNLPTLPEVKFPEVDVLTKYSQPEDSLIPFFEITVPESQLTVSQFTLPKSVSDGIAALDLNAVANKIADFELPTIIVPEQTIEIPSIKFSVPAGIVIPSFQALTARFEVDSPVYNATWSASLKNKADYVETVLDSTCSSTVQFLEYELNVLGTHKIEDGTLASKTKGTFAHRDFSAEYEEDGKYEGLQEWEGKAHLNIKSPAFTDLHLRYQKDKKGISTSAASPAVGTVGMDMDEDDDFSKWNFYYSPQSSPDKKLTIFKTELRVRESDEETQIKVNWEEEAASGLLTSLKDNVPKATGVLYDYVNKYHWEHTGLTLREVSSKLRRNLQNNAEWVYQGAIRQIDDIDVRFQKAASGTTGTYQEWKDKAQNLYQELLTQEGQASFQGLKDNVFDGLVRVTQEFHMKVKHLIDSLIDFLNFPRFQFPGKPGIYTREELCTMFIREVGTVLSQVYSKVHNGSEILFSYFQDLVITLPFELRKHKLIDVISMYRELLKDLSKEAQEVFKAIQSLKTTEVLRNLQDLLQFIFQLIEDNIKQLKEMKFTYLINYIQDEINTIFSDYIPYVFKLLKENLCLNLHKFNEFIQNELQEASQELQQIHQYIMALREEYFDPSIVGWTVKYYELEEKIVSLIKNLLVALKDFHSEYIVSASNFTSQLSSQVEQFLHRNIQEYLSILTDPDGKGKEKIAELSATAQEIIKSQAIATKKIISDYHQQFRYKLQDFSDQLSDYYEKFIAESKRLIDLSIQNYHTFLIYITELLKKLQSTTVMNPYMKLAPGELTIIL

Kd: 2 nM
B1: LDLR^ecto-(His)6 (domain or fragment)
chain: not shown
